Laboratory results published in patent publication US20250042970A1 (AURINIA PHARMACEUTICALS, published 2025).

How the values were obtained:
[1] = target: human BAFF (Acros Biosystems) (human, UniProt Q9Y275 134-285); test: cell-based or functional assay
[2] = target: T1, human APRIL (Acros Biosystems) (human, UniProt O75888 115-250, limits assumed); test: cell-based or functional assay
T1 sequence: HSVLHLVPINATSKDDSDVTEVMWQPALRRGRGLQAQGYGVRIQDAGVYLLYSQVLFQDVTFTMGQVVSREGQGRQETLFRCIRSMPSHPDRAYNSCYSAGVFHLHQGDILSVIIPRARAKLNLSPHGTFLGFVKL

[3] = target: human BAFF-60mer (Adipogen) (human, UniProt Q9Y275 134-285); test: cell-based or functional assay
[4] = target: T2, human BAFF (Examples 21-23) (human, UniProt Q9Y275 134-285); test: assay not given (Example 21)
T2 construct: also called huBAFF

[5] = target: T3, human APRIL (Examples 21-23) (human, UniProt O75888 105-250); test: assay not given (Example 21)
T3 construct: also called huAPRIL
T3 sequence: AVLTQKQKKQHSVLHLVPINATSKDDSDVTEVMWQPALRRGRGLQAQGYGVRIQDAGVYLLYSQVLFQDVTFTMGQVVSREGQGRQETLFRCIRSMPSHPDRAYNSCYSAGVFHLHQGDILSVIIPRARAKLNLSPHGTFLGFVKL

[6] = target: T2, human BAFF (Examples 21-23); test: assay not given (Example 21); remark: listed apart in the source
[7] = target: T3, human APRIL (Examples 21-23); test: assay not given (Example 21); remark: listed apart in the source
[8] = target: T2, human BAFF (Examples 21-23); test: SPR (Carterra LSA, HC30M chip)
Experimental: (§1) The KD of a BAv9-1 CRD-IgG4 Fc fusion protein, and other BAFF or APRIL binding molecules, the BAFF/APRIL binding molecule Atacicept and a different recombinant TACI-Fc fusion protein RC18 (also known as Telitacicept), to human or murine BAFF or human or murine APRIL were determined by surface plasmon resonance (Carterra LSA, HC30M sensor chip).

[9] = target: T3, human APRIL (Examples 21-23); test: SPR (Carterra LSA, HC30M chip)
Experimental: as §1

[10] = target: T4, murine BAFF (Examples 22-23) (mouse, UniProt Q9WU72 127-309); test: SPR (Carterra LSA, HC30M chip)
Experimental: as §1

[11] = target: T3, human APRIL (Examples 21-23); test: colorimetric ELISA, inhibition curves
Source text: (§2) A colorimetric ELISA was used to assess the binding of BAFF/APRIL binding molecules to human and murine BAFF and APRIL. Inhibition curves based on binding to soluble human and murine BAFF and APRIL were used to determine the IC₅₀ values for binding of the exemplary BCMA CRD variant-IgG4 fusion protein BAv9-1 CRD-IgG4 Fc, Atacicept and a different recombinant TACI-Fc fusion protein RC18 (also known as Telitacicept).
(§3) FIG. 34A and FIG. 34B show the inhibition curves of the three different BAFF/APRIL binding molecules to murine BAFF (FIG. 34A) and murine APRIL (FIG. 34B). Compared to the IC₅₀ values determined for Atacicept and RC18 (Telitacicept), the IC₅₀ of the exemplary BCMA CRD variant-IgG4 fusion protein BAv9-1 CRD-IgG4 Fc was orders of magnitude lower for both murine BAFF and murine APRIL. The IC₅₀ values for BAv9-1 CRD-IgG4 Fc for murine BAFF and murine APRIL were 1.5 nM and 2.7 nM respectively.

[12] = target: T4, murine BAFF (Examples 22-23); test: colorimetric ELISA, inhibition curves
Source text: as §2, §3

[13] = target: T5, murine APRIL (Examples 22-23) (mouse, UniProt Q9D777 96-241); test: colorimetric ELISA, inhibition curves
T5 sequence (looked up): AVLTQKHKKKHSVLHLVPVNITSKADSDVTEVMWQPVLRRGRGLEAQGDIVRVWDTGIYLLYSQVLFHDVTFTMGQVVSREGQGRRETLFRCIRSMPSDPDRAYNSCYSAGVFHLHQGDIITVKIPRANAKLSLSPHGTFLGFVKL
Source text: as §2, §3

[14] = target: T5, murine APRIL (Examples 22-23); test: SPR (Carterra LSA, HC30M chip); murine ligand (Table 13)
Experimental: as §1

[15] = target: T2, human BAFF (Examples 21-23); test: ratio of KD values of Table 11, assay not stated (Example 21); reference Atacicept
[16] = target: T3, human APRIL (Examples 21-23); test: as above

T4 sequence (Q9WU72 127-309 limits assumed): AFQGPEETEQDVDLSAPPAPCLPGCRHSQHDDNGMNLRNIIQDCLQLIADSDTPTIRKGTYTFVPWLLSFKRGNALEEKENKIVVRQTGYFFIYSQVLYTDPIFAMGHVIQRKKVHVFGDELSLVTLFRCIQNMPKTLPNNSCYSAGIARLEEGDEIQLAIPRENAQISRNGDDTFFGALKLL

IC50 for proliferation of stimulated B cells, Donor 1, BAFF + anti-IgM [1]: 0.311 nM
IC50 for proliferation of stimulated B cells, Donor 2, BAFF + anti-IgM [1]: 0.215 pM
IC50 for proliferation of stimulated B cells, Donor 3, BAFF + anti-IgM [1]: 0.0201 nM
IC50 for proliferation of stimulated B cells, Donor 1, APRIL + anti-IgM [2]: 0.662 nM
IC50 for proliferation of stimulated B cells, Donor 2, APRIL + anti-IgM [2]: 0.226 nM
IC50 for proliferation of stimulated B cells, Donor 3, APRIL + anti-IgM [2]: 0.366 nM
IC50 for proliferation of stimulated B cells, Donor 1, BAFF-60mer + anti-IgM [3]: 0.835 nM
IC50 for proliferation of stimulated B cells, Donor 2, BAFF-60mer + anti-IgM [3]: 0.577 nM
IC50 for proliferation of stimulated B cells, Donor 3, BAFF-60mer + anti-IgM [3]: 0.61 nM
fold higher binding affinity vs Atacicept [4]: 600 to 800 fold
fold higher binding affinity vs Atacicept [5]: 600 to 800 fold
Kd [6]: 0.24 pM
Kd [7]: 0.15 pM
Kd [8]: 0.117 nM
Kd [9]: 0.025 nM
Kd [10]: 0.031 nM
IC50 [11]: 2 pM
IC50 [12]: 1.5 nM
IC50 [13]: 2.7 nM
Kd [14]: 0.15 pM
fold higher binding affinity compared to Atacicept [15]: 600 to 800 fold
fold higher binding affinity compared to Atacicept [16]: 600 to 800 fold
B1: BAv9-1 CRD-IgG4 Fc (Fc fusion)
chain: AGQCSQNEYFDHLIRACIPCQLRCSSNTPPLTCQRYCNAGVTNSVGGGGSAESKYGPPCPPCPAPEAAGGPSVFLFPPKPKDTLMISRTPEVTCVVVDVSQEDPEVQFNWYVDGVEVHNAKTKPREEQFNSTYRVVSVLTVLHQDWLNGKEYKCKVSNKGLPSSIEKTISKAKGQPREPQVYTLPPSQEEMTKNQVSLTCLVKGFYPSDIAVEWESNGQPENNYKTTPPVLDSDGSFFLYSRLTVDKSRWQEGNVFSCSVMHEALHNHYTQKSLSLSPGK
notes: mature expressed protein; also called BAv9-1 CRD-Ig Fc; exemplary BCMA CRD variant-IgG4 fusion protein
